# Results: PMC5882628, “Development of a Cell-Based Assay to Assess Binding of the proNGF Prodomain to Sortilin” (Cellular and Molecular Neurobiology, 2017)
# “Also recorded” adds a separate entry of the source.
# T1: sortilin (Homo sapiens, UniProt Q99523)
# T1 construct: They were transfected with plasmids either encoding wild type sortilin, or sortilin with a mutation that renders it endocytosis deficient; expressed in transfected cells; host or cells: HEK 293 cells, transient transfection (lipofectamine)
# T1 sequence (Q99523 78-831): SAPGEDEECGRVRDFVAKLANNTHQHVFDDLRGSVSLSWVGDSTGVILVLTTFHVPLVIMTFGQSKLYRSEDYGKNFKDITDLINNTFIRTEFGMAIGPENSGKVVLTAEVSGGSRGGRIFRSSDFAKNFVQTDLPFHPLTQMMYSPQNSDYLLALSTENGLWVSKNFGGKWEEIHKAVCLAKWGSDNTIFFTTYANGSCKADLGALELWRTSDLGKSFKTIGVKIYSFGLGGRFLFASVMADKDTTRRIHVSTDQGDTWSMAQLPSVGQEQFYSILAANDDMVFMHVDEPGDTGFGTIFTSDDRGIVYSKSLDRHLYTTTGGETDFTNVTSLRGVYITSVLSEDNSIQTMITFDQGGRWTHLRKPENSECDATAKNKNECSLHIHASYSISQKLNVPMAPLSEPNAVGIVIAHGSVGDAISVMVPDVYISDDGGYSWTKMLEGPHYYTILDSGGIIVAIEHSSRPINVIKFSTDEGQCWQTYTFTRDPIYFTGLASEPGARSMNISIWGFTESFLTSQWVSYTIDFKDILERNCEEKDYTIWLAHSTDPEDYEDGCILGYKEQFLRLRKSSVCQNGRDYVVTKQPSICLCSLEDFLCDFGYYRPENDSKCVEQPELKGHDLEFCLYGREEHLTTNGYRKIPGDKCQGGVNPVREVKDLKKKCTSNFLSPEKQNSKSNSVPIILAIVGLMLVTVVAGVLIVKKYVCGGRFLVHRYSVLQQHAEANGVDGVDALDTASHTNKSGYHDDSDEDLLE
# B1: GSTpro: fusion of Glutathione S-transferase (GST) merged at the C-terminal of GST to the pro part (19–121) of human proNGF (protein)
# chain: EPHSESNVPAGHTIPQAHWTKLQHSLDTALRRARSAPAAAIAARVAGQTRNITVDPRLFKKRRLRSPRVLFSTQPPREAADTQDLDFEVGGAAPFNRTHRSKR
# modifications: left off: GST, N-terminal, kept
# notes: fusion of Glutathione S-transferase (GST) merged at the C-terminal of GST to the pro part (19–121) of human proNGF
# Biological target: T1, sortilin
# Experiment: GSTpro binding to wt sortilin-transfected HEK293 cells, staining without detergent permeabilization
# Assay type: cell-based
# Details: versus staining with detergent, Fig. 6a vs 6b
# Method: HEK 293 cells were grown in DMEM with 10% fetal bovine serum. They were transfected with plasmids either encoding wild type sortilin, or sortilin with a mutation that renders it endocytosis deficient, or an empty control vector according to manufacturer’s instructions using 20 µg lipofectamine (Thermo Fischer Scientific) with 8 µg DNA on […] per 6 cm, poly-lysine coated dish. The cells were initially plated into 24-well dishes after transfection. That intermediate step rendered more uniform cell numbers in the 96-well dishes that were used to run the actual assay. 24 h later, cells were split into black opaque-walled, clear-bottom 96 well dishes at 42000 cells in 80 µl medium/well. […]
# The fixed cells were washed with PBS for 15 min, followed by two 15 min washes with PBS with 0.1% Triton X-100. […] Wells to be evaluated for blocking of the sortilin-GSTpro interaction by antibodies were only stained with an antibody against the pro domain of proNGF in 10% FBS at a dilution of 1:1500 (Millipore (N-term) clone EPI318Y, Rabbit Monoclonal Antibody Catalog Number: #04-1142). […]
# The following day, wells were washed 3 × 15 min with PBS/0.1% Triton X-100. […] Cellular fluorescence was quantified using an array scanner and the “Neuronal Profiler” Bioapplication (Thermo Fisher Scientific) as described below.
molecule,measurement,setting,value
B1,reduction of GSTpro signal without permeabilization,cells expressing sortilin below the set threshold,less than half reduced
same,reduction of GSTpro signal without permeabilization,sortilin-positive cells,almost fourfold reduced; also recorded: much lower GSTpro signal
